# Experimental data: patent publication US20090136527A1
# Non-standard residues stand in square brackets, D forms with d. pGlu = O=C1CC[C@@H](C(=O)O)N1
# T1: human GnRH receptor (human) (UniProt P30968)
# T1 sequence (looked up): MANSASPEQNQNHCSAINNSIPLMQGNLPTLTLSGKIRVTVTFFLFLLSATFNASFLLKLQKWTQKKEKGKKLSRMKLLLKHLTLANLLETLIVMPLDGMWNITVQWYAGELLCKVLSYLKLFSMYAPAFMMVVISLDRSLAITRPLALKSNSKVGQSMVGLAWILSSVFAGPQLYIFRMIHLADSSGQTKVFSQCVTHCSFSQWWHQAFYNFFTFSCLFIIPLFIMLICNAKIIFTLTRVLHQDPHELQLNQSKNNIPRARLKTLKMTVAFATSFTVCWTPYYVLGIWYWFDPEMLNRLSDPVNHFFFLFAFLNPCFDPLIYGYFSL
# Tests used:
# [1] = target: T1, human GnRH receptor (human); experiment: cell-based or functional assay
# [2] = target: affinity purified rabbit anti-RI-GnRH antibody fraction eluted with potassium thiocyanate, first fraction (KSCN 1); experiment: inhibition ELISA: antibody fraction preincubated with free peptide, binding to coated RI-GnRH
half-maximal effective concentration (EC50) of IP production [1],IC50 (read off the curve) [2],Binder
1 nM,100 nM,EHWSYGLQPG (pGlu (pyroglutamate) at position 1; C-terminal amide) [chicken GnRH I ([Gln8]GnRH)]
1 nM,–,"[pGlu]HWSHGWYPG-NH2 (SMILES NC(=O)CNC(=O)[C@@H]1CCCN1C(=O)[C@H](Cc1ccc(O)cc1)NC(=O)[C@H](Cc1c[nH]c2ccccc12)NC(=O)CNC(=O)[C@H](Cc1c[nH]cn1)NC(=O)[C@H](CO)NC(=O)[C@H](Cc1c[nH]c2ccccc12)NC(=O)[C@H](Cc1c[nH]cn1)NC(=O)[C@@H]1CCC(=O)N1) [GnRH II ([His5, Trp7, Tyr8]GnRH)]"
